We go through two molecules from US20240270810A1, “PREPARATION AND APPLICATION OF POLYPEPTIDE” (GUANGDONG RAYNOVENT BIOTECH CO., LTD., priority 2021, published 2024).

In assay [1] the target is T1, GIPR (Homo sapiens, UniProt P48546).
T1 construct: host or cells: CHO
T1 sequence (P48546 22-466): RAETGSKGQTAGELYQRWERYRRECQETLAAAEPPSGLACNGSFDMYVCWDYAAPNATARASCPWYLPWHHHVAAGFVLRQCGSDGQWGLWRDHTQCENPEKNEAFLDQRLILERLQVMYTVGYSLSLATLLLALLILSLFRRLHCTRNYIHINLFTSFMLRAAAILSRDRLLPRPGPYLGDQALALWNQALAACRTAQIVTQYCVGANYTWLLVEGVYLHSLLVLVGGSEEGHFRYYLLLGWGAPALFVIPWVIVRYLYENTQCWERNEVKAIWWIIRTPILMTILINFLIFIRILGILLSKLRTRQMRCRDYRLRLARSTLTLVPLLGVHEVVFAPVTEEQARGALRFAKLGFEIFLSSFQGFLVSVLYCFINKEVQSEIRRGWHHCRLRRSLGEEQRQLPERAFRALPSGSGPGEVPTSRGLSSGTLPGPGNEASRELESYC
As to the kind of experiment: In vitro GIPR agonistic activity test (cAMP kit). In kind it is cell-based. The following applies: CHO host cells, without 1% HSA. As for the experimental part: The cell lines were constructed by Wuxi […] (Shanghai) Co., Ltd. See details in Table 1 below. […] The test compounds were diluted at a 4-fold dilution factor in 10 points, starting from an initial concentration of 30 μM. The dilution was carried out by Bravo. • 1) 100 nL of compounds were transferred to an OptiPlate-384 plate by Echo. • 2) The OptiPlate-384 plate was centrifuged at 1000 rpm for 5 s. • 1) A GLP-1R/GIPR cell cryovial was placed in warm water at 37° C. for rapid thawing. • 2) The cell suspension was transferred into a 15 mL Transfer centrifugal tube and rinsed with 10 mL of HBSS gently. • 3) The centrifugal tube was centrifuged at 1000 rpm at room temperature for 1 min. • 4) The supernatant was discarded. • 5) The bottom cells were gently dispersed, then gently rinsed with 10 mL of HBSS, the centrifugal tube was centrifuged to settle the cells, and finally the cells were resuspended in an experimental buffer. • 6) Cell density and viability were measured by Vi-cell. • 7) The GLP-1R/GIPR cells were diluted with the experimental buffer to a concentration of 2.0*10^5/mL. • 8) […] of the diluted cell suspension was transferred into the OptiPlate-384 plate. • 9) Incubation was performed at room temperature for 30 min. • 1) 10 μL of 800 nM gradient diluted cAMP standard was added into the empty wells of the OptiPlate-384 plate. • 2) 10 μL of cAMP assay reagent was added. • 3) The OptiPlate-384 plate was covered with TopSeal-A film and incubated at room temperature for 60 min. The TopSeal-A film was removed, and readout was performed on En Vision.

For assay [2], the target named is T2, GLP-1R (Homo sapiens, UniProt P43220).
T2 construct: host or cells: HEK293
T2 sequence (P43220 24-463, species assumed): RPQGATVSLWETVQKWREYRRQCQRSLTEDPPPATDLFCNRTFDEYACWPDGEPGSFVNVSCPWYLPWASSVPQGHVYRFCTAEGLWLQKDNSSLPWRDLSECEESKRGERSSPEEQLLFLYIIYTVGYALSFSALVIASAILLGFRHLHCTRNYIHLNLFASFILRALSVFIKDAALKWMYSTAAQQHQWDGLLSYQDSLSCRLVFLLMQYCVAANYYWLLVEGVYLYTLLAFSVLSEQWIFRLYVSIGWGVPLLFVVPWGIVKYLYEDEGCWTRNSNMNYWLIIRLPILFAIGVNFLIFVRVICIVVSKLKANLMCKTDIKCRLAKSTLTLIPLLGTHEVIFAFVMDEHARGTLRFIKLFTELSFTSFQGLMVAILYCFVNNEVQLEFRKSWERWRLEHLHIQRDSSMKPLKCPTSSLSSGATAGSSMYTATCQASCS
The experiment in a line: In vitro GLP-1R agonistic activity test (cAMP kit). In kind it is cell-based. The note with it: HEK293 host cells, without 1% HSA. As for the experimental part: The cell lines were constructed by Wuxi […] (Shanghai) Co., Ltd. See details in Table 1 below. [table] [table] The test compounds were diluted at a 4-fold dilution factor in 10 points, starting from an initial concentration of 30 μM. The dilution was carried out by Bravo. • 1) 100 nL of compounds were transferred to an OptiPlate-384 plate by Echo. • 2) The OptiPlate-384 plate was centrifuged at 1000 rpm for 5 s. • 1) A GLP-1R/GIPR cell cryovial was placed in warm water at 37° C. for rapid thawing. • 2) The cell suspension was transferred into a 15 mL Transfer centrifugal tube and rinsed with 10 mL of HBSS gently. • 3) The centrifugal tube was centrifuged at 1000 rpm at room temperature for 1 min. • 4) The supernatant was discarded. • 5) The bottom cells were gently dispersed, then gently rinsed with 10 mL of HBSS, the centrifugal tube was centrifuged to settle the cells, and finally the cells were resuspended in an experimental buffer. • 6) Cell density and viability were measured by Vi-cell. • 7) The GLP-1R/GIPR cells were diluted with the experimental buffer to a concentration of 2.0*10^5/mL. • 8) […] of the diluted cell suspension was transferred into the OptiPlate-384 plate. • 9) Incubation was performed at room temperature for 30 min. • 1) 10 μL of 800 nM gradient diluted cAMP standard was added into the empty wells of the OptiPlate-384 plate. • 2) 10 μL of cAMP assay reagent was added. • 3) The OptiPlate-384 plate was covered with TopSeal-A film and incubated at room temperature for 60 min. The TopSeal-A film was removed, and readout was performed on En Vision.

Assay [3] deals with GLP-1R (UniProt P43220 24-463, limits assumed). As to the kind of experiment: cell-based or functional assay.
For assay [4], the target named is T3, GIPR (UniProt P48546 22-466, limits assumed).
T3 sequence (looked up): T1 sequence (P48546 22-466)
The experiment in a line: cell-based or functional assay.

Regarding `CC[C@H](C)[C@H](NC(=O)[C@H](CC(C)C)NC(=O)[C@H](Cc1c[nH]c2ccccc12)NC(=O)[C@H](CCC(=O)O)NC(=O)[C@@H](NC(=O)[C@H](Cc1ccccc1)NC(=O)[C@H](C)NC(=O)[C@@H]1CCCCNC(=O)CN(C(=O)COCCOCCNC(=O)COCCOCCNC(=O)CC[C@H](NC(=O)CC[C@H](NC(=O)CCCCCCCCCCCCCCCCC(=O)O)C(=O)O)C(=O)O)CC(=O)NCCCC[C@H](NC(=O)[C@H](CCCCN)NC(=O)[C@H](CC(=O)O)NC(=O)[C@H](CC(C)C)NC(=O)C(C)(C)NC(=O)[C@@H](NC(=O)[C@H](CO)NC(=O)[C@H](Cc2ccc(O)cc2)NC(=O)[C@H](CC(=O)O)NC(=O)[C@H](CO)NC(=O)[C@@H](NC(=O)[C@H](Cc2ccccc2)NC(=O)[C@@H](NC(=O)CNC(=O)[C@H](CCC(=O)O)NC(=O)C(C)(C)NC(=O)[C@@H](N)Cc2ccc(O)cc2)[C@@H](C)O)[C@@H](C)O)[C@@H](C)CC)C(=O)N[C@@H](C)C(=O)N[C@@H](CCC(N)=O)C(=O)N1)C(C)C)C(=O)N[C@@H](C)C(=O)NCC(=O)NCC(=O)N1CCC[C@H]1C(=O)N[C@@H](CO)C(=O)N[C@@H](CO)C(=O)NCC(=O)N[C@@H](C)C(=O)N1CCC[C@H]1C(=O)N1CCC[C@H]1C(=O)N1CCC[C@H]1C(=O)N[C@@H](CO)C(N)=O` [WX-014], the EC50 (in general, the concentration giving half of the maximal effect) stood at 0.24 nM in assay [1] and 0.071 nM in assay [2].

B1: polypeptide compound WX-001 (peptide)
peptide: YXEGTFTSDYSIXLDKIAQKAFIKWLIAGGPSSGAPPPS
modifications: Aib at positions 2 and 13; C-terminal amide (-NH2); side-chain amino groups of Lys 20 and Lys 24 bridged by iminodiacetic acid (from Fmoc-Ida-OH) whose nitrogen carries Intermediate A-1 (fatty acid side chain, structure only in a drawing)
For B1, in assay [3], the “EC50 (nM), cAMP assay on GLP-1R HEK293 cells, (+) 1% HSA” value came out at 16.6 nM; the “EC50 (nM), cAMP assay on GLP-1R HEK293 cells, (-) 1% HSA” value was found to be 0.0596 nM; the “Ratio of EC50 (+) 1% HSA to (-) 1% HSA, cAMP assay” value came out at 279. Also, in assay [4], the “EC50 (nM), cAMP assay on GIPR CHO cells, (+) 1% HSA” value was determined as 16 nM; the “EC50 (nM), cAMP assay on GIPR CHO cells, (-) 1% HSA” value was determined as 0.324 nM; the “Ratio of EC50 (+) 1% HSA to (-) 1% HSA, cAMP assay” value stood at 49.3.
